Source: patent US20090117153A1
Where two headings read alike, the source gives them in different places.

Key:
[1] = target: native K^b on cells, loaded with endogenous peptides (mouse) (UniProt P01887); assay: cell-based or functional assay
[2] = target: OVA.β2m.Kb SCT Y84A (mouse) (UniProt P01887)
[3] = target: OVAp5Y.β2m.Kb Y84A SCT (mouse) (UniProt P01887)
[4] = target: OVA.β2m.Kb SCT Y84A (mouse) (UniProt P01887); remark: listed apart in the source

Row | IC50 [2] | IC50 [3] | IC50 [4] | Substance | VSV8 concentration that activates the N15 hybridoma; LM1.8 cells (FIG. 11C) [1]
1 | – | – | – | VSV8 peptide | 1 nM
2 | 125 µM | 40 µM | 1.25 µM | SIYR peptide | –
